These results are taken from patent US20100068217A1.

For assay [1], the target named is MPER WT peptide. As to the kind of experiment: ELISA, antigen on the plate, 2F5 IgG titrated 2.6e-7 to 1e-1 ug/ul. On the technique in general: An ELISA detects its analyte on a solid surface through an enzyme-linked reagent.
Assay [2] deals with gp41e-1KU2 (Thermus aquaticus (origin of the scaffold protein, Table 1)). The description is as above.
The target of assay [3] is MPER Cyclized peptide (HIV-1 gp41 MPER-derived, synthetic). The experiment in a line: kinetics with 2F5 as analyte (Biacore per paragraph 255). (In general: SPR reads the build-up and loss of mass on a sensor chip optically.)
For assay [4], the target named is MPER WT peptide. The assay is described as above.
The target in assay [5] is gp41e-1KU2 (Thermus aquaticus (origin of the scaffold protein, Table 1)). Described as above.
Assay [6] has as its target gp41e-1LGY (Rhizopus niveus (origin of the scaffold protein, Table 1)). Described as above.
Assay [7] has as its target gp41e-2MAT (E. coli (origin of the scaffold protein, Table 1)). The description is as above.

Consider 2F5 antibody, for which the EC50 (read off the curve) (with MPER WT peptide [1]; in assay [2]) was 200 ng/mL throughout. In addition, the Kd in assay [3] is 5.09 nM; in the assay with MPER WT peptide [4], 6.45 nM; in assay [5] it was 2.63 nM; in assay [6], 10.7 nM; in assay [7], 9.35 nM. Besides, the koff in assay [3] came out at 0.00269 s⁻¹; with MPER WT peptide [4] it was 0.00356 s⁻¹; in assay [5], 0.00287 s⁻¹; in assay [6] it was 0.00396 s⁻¹; in assay [7], 0.000679 s⁻¹. Besides, the kon was 528000 M⁻¹ s⁻¹ in assay [3]; 552000 M⁻¹ s⁻¹ with MPER WT peptide [4]; 1.09e+06 M⁻¹ s⁻¹ in assay [5]; 369000 M⁻¹ s⁻¹ in assay [6]; 72600 M⁻¹ s⁻¹ in assay [7].

By EC50 (read off the curve) is commonly meant the concentration needed to bring the measured effect to its halfway point. A higher EC50 (read off the curve) goes with a need for much substance. Usually Kd stands for the concentration at which binding is half-saturated. A high value points to a looser complex. The koff is a measure of how fast the partners let go of each other. A low value points to slow dissociation. In general, kon refers to a measure of how fast the partners come together.
